Test results: patent publication US20120283184A1 (published 2012)
Positions count from the first letter of the chain named.

B1: B11 (designed binder)
chain: EVVAATPTSLLISWRHPHFPTRYYRITYGETGGNSPVQEFTVPLQPPTATISGLKPGVDYTITGYAVTVERNGRELKTPISINYRT
notes: 10Fn3 clone, Del 1-8
B2: 3′E4 PR4 (designed binder)
chain: B1 chain with G64V, E70G, R71P, G73D, K77I, T78V
notes: in vitro translated
B3: 1′DelB10 PR4 (designed binder)
chain: B1 chain with G64V, E70A, G73D, R74H, K77M
notes: in vitro translated
B4: 1′DelH9 PR4 (designed binder)
chain: B1 chain with G64V, E70G, R71Q, G73D, R74H, K77I
notes: in vitro translated
B5: 4′G12 PR4 (designed binder)
chain: B1 chain with G64V, E70A, R71W, G73D, R74H, L76I, K77Y
B6: 1′DelG9 PR4 (designed binder)
chain: B1 chain with G64V, E70A, R71Q, N72S, G73D, R74H, K77M
notes: in vitro translated
B7: 4′G4 PR4 (designed binder)
chain: B1 chain with G64V, E70A, R71Q, G73D, K77L
B8: 3E6 PR3 (designed binder)
chain: B1 chain with G64V, E70P, R71Q, R74H, K77I, P79M
notes: in vitro translated
B9: 4C4 PR3 (designed binder)
chain: B1 chain with G64V, E70A, R71Q, N72D, G73D, R74H, K77F
notes: in vitro translated
B10: 1′DelD3 PR4 (designed binder)
chain: B1 chain with G64V, V69L, E70A, R71Q, G73N, R74H, K77I
notes: in vitro translated
B11: 3D4 PR3 (designed binder)
chain: B1 chain with G64V, E70G, R71W, G73D, R74H, K77I
notes: in vitro translated
B12: 4′G8 PR4 (designed binder)
chain: B1 chain with G64V, E70A, R71Q, R74H, K77L
notes: in vitro translated
B13: 3D11 PR3 (designed binder)
chain: B1 chain with G64V, V69L, E70G, R71Q, N72E, G73N, R74Q, K77I
notes: in vitro translated
B14: 3H9 PR3 (designed binder)
chain: B1 chain with G64V, E70S, R71Q, N72Q, G73N, R74H, K77L
notes: in vitro translated
B15: 1′DelA4 PR4 (designed binder)
chain: B1 chain with E70A, R71Q, G73D, R74H, K77F
notes: in vitro translated
B16: 1′DelC5 PR4 (designed binder)
chain: B1 chain with G64V, V69L, E70A, R71Q, G73D, R74H, L76I, K77M
notes: in vitro translated
B17: 2′DelB10 PR4 (designed binder)
chain: B1 chain with G64V, E70T, R71H, G73D, R74H, K77L
notes: in vitro translated
B18: 3G10 PR3 (designed binder)
chain: B1 chain with G64V, E70V, R71H, R74H, L76I, K77L
notes: in vitro translated
B19: 3′D4 PR4 (designed binder)
chain: B1 chain with G64V, V69L, E70A, R71H, G73D, K77I
notes: in vitro translated
B20: 2′DelB9 PR4 (designed binder)
chain: B1 chain with G64V, E70G, R71P, N72T, G73D, R74H, K77L
notes: in vitro translated
B21: 3C5 PR3 (designed binder)
chain: B1 chain with G64V, V69G, E70D, R71H, G73D, K77M
notes: in vitro translated
B22: 4′B6 PR4 (designed binder)
chain: B1 chain with G64V, V69L, E70A, R71Q, G73D, R74H, K77I
notes: in vitro translated
B23: 3A8 PR3 (designed binder)
chain: B1 chain with G64V, V69E, E70A, R71H, N72H, R74H, K77M, T78I
notes: in vitro translated
B24: 4′D6 PR4 (designed binder)
chain: B1 chain with G64V, V69M, E70A, R71Q, G73D, R74H, K77M
B25: 4A4 PR3 (designed binder)
chain: B1 chain with G64V, E70A, R71Q, G73D, R74H, K77F
notes: in vitro translated
B26: 4′D8 PR4 (designed binder)
chain: B1 chain with G64V, V69L, E70A, R71Q, R74H, K77Y
B27: 3F11 PR3 (designed binder)
chain: B1 chain with G64V, E70G, R71L, N72T, G73D, R74H, E75V, K77L
notes: in vitro translated
B28: 4′E7 PR4 (designed binder)
chain: B1 chain with G64V, V69W, E70A, R71Q, G73D, R74H, K77L
B29: 3′E8 PR4 (designed binder)
chain: B1 chain with G64V, E70A, R71Q, G73D, E75Q, K77F
notes: in vitro translated
B30: 1′DelC6 PR4 (designed binder)
chain: B1 chain with G64V, E70A, R71Q, G73E, R74H, K77L
notes: in vitro translated
B31: 3F4 PR3 (designed binder)
chain: B1 chain with G64V, V69M, E70G, R71Y, N72E, G73D, R74H, K77I
notes: in vitro translated
B32: 4′H7 PR4 (designed binder)
chain: B1 chain with G64V, V69L, E70A, R71H, G73D, R74H, K77L
B33: 4′H5 PR4 (designed binder)
chain: B1 chain with G64V, V69L, E70A, R71Q, R74H, K77F
B34: 2′DelB11 PR4 (designed binder)
chain: B1 chain with G64V, E70G, R71Q, G73D, R74H, K77M
notes: in vitro translated
B35: 1′DelG11 PR4 (designed binder)
chain: B1 chain with G64V, V69L, E70A, R71Q, R74H, E75V, K77I
notes: in vitro translated
B36: 4′H12 PR4 (designed binder)
chain: B1 chain with G64V, E70A, R71H, G73D, R74H, K77L
B37: 1′DelH7 PR4 (designed binder)
chain: B1 chain with G64V, E70G, R71Q, G73D, R74Q, K77L
notes: in vitro translated
B38: 3F5 PR3 (designed binder)
chain: B1 chain with G64V, E70A, R71Y, G73E, R74H, K77Y
notes: in vitro translated
B39: 2′E4-PR4 (designed binder)
chain: VSDVPRDLEVVAATPTSLLISWRHPHFPTRYYRITYGETGGNSPVQEFTVPLQPPTATISGLKPGVDYTITVYAVTVHWNGHELMTPISINYRT
B40: 2H12 PR3 (designed binder)
chain: B39 chain with V77E, H78G, W79Y, N80Q, G81N, M85S, T86V
notes: in vitro translated
B41: 2′A1-PR4 (designed binder)
chain: B39 chain with V77S, H78G, W79H, G81D, E83M, T86I
notes: in vitro translated
B42: 2′G11-PR4 (designed binder)
chain: B39 chain with V77G, H78G, W79Q, N80M, G81N, H82R, E83V
notes: in vitro translated
B43: 2H10 PR3 (designed binder)
chain: B39 chain with V77L, H78A, W79P, N80S, G81A, H82R
notes: in vitro translated
B44: 2′D6-PR4 (designed binder)
chain: B39 chain with H78T, W79H, E83P
B45: 2′D5-PR4 (designed binder)
chain: B39 chain with H78A, G81D, E83M
notes: in vitro translated
B46: 2′C6-PR4 (designed binder)
chain: B39 chain with V77M, H78G, W79F, N80M, G81A, T86V
B47: 2′H4-PR4 (designed binder)
chain: B39 chain with H78G, W79P, G81E, H82R, E83M

Assays:
[1] = biological target: T1, Flk-1-Fc (mouse vascular endothelial growth factor receptor-2 Fc chimera) (mouse, UniProt P35918 20-762); assay: radioactive equilibrium binding assay, % bound at 1 nM Flk-1-Fc
T1 construct: Bought from R&D Systems; also called mouse VEGFR-2-Fc; Fc part of the bought chimera not given
T1 sequence (P35918 20-762, change not shown): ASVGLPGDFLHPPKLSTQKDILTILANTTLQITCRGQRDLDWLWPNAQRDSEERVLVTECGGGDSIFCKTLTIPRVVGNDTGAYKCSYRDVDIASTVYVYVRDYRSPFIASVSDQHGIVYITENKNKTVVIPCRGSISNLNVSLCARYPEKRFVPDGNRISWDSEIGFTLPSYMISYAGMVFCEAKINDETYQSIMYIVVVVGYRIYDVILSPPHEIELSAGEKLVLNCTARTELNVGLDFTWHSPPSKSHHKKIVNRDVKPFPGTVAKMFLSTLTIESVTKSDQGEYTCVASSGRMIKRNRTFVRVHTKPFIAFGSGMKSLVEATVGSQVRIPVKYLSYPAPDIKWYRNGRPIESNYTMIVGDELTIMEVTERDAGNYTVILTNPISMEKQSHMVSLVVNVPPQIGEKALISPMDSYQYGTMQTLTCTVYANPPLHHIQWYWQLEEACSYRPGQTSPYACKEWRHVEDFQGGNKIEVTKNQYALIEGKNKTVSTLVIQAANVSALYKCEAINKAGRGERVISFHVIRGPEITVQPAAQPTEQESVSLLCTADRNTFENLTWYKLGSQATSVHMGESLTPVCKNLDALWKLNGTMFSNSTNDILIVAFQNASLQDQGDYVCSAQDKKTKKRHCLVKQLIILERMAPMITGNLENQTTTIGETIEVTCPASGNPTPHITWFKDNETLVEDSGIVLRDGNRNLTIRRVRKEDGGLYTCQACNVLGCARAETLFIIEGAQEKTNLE
Description: (§1) To prepare ³⁵S-labeled binding proteins for analysis, mRNA was prepared as described above for RNA-protein fusion production but the linker ligation step was omitted. The mRNA was expressed using rabbit reticulocyte lysate translation kit (Ambion) in the presence of ³⁵S-labeled Met at 30° C. for 1 hour. Expressed protein was purified on M2-agarose Flag beads (Sigma) as described above. This procedure produced the encoded protein without the nucleic acid tail. In a direct binding assay, VEGF-R2-Fc fusions in concentrations ranging from 0 to 200 nM were added to a constant concentration of the purified protein (0.2 or 0.5 nM) and incubated at 30° C. for 1 hour in buffer B. The receptor-binder complexes were captured using Protein A magnetic beads for another 10 minutes at room temperature using a Kingfisher™ The beads were washed with six reaction volumes of buffer B. The protein was eluted from the beads with 100 μL of 0.1 M KOH. 50 μL of the reaction mixture and elution were dried onto a LumaPlate-96 (Packard) and the amount of ³⁵S on the plate was measured using a TopCount NXT instrument (Packard). The amount of fibronectin-based scaffold protein bound to the target was estimated as a percent of radioactivity eluted from Protein A magnetic beads compare to radioactivity in the reaction mixture. Nonspecific binding of fibronectin-based scaffold proteins to the beads was determined by measuring binding in the absence of KDR-Fc and represented less than 1-2% of the input. Specific binding was obtained through subtraction of nonspecific binding from total binding. Data was analyzed using the GraphPad Prizm software (GraphPad Software, Inc, San Diego, Calif.), fitted using a one site, non-linear binding equation.

[2] = biological target: T2, human vascular endothelial growth factor receptor-2 Fc chimera (KDR-Fc) (human, UniProt P35968 20-764); assay: radioactive equilibrium binding, 1 nM KDR-Fc
T2 construct: range 1-764; Purchased from R&D Systems; also called hKDR; human VEGF-R2-Fc; not shown: human IgG1 Fc
Description: as §1

[3] = biological target: T3, human vascular endothelial growth factor receptor-2 Fc chimera (KDR-Fc) (human, UniProt P35968 20-764); assay: radioactive equilibrium binding, 1 nM KDR-Fc, % of input
T3 construct: range 1-764; also called human VEGFR-2; not shown: human IgG1 Fc
Procedure, shortened: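 ³⁵S-Met-labelled fibronectin-based scaffold proteins, made by reticulocyte-lysate translation and Flag-purified, were held at 0.2 or 0.5 nM with 0–200 nM receptor-Fc for 1 h at 30 °C in buffer B. Complexes were captured on Protein A beads, washed and KOH-eluted. Bound fraction is eluted radioactivity as % of input, minus receptor-free background, fitted to one-site binding.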

Binder	Binding to 1 nM KDR, % [2] [%]	further results
B1		Binding to 1 nM Flk-1, % [1]: 21%
B2	12	
B3	11	
B4	10	
B5		Binding to 1 nM KDR, % [3]: 21%
B6	10	
B7		Binding to 1 nM KDR, % [3]: 19%
B8	12	
B9	10	
B10	12	
B11	10	
B12	13	
B13	10	
B14	11	
B15	13	
B16	11	
B17	11	
B18	10	
B19	12	
B20	11	
B21	12	
B22	11	
B23	12	
B24		Binding to 1 nM KDR, % [3]: 14%

Binder	Binding to 1 nM KDR, % [2] [%]	further results
B25	10	
B26		Binding to 1 nM KDR, % [3]: 26%
B27	10	
B28		Binding to 1 nM KDR, % [3]: 17%
B29	12	
B30	12	
B31	10	
B32		Binding to 1 nM KDR, % [3]: 29%
B33		Binding to 1 nM KDR, % [3]: 18%
B34	11	
B35	11	
B36		Binding to 1 nM KDR, % [3]: 17%
B37	11	
B38	11	
B39		Binding to 1 nM KDR, % [3]: 22%
B40	10	
B41	11	
B42	12	
B43	10	
B44		Binding to 1 nM KDR, % [3]: 22%
B45	11	
B46		Binding to 1 nM KDR, % [3]: 16%
B47		Binding to 1 nM KDR, % [3]: 17%
